Entries after “also recorded” stand apart in the source; their conditions may differ. Read-outs that look alike come from different tables or passages of the source.
Experiments:
[1] = tested on: Pseudomonas aeruginosa strain CFS-1292 (meropenem resistant); assay: MIC in 25% CAA alone, with […] human serum or […] SURVANTA (Table 13); assay type: cell-based; settings: media alone
Method: (§1) Materials and methods: MICs were determined by broth microdilution in media supplemented with human serum and pulmonary surfactant ([…]®; Myoderm Clinical Supplies). Minimal biofilm eradicating concentrations (MBECs) were determined using standard methods. […] Fluorescence microscopy was performed after LIVE/DEAD staining (ThermoFisher) and TEM was performed.

[2] = tested on: biofilms formed by P. aeruginosa strain ATCC 17646; settings: strain ATCC 17646 biofilm
Method: (§2) Biofilms are then washed and treated with e.g., a 2-fold dilution series of the lysin in TSBg at e.g., 37° C. for 24 hours. After treatment, wells are washed, air-dried at e.g., 37° C. and stained with e.g., 0.05% crystal violet for 10 minutes.

[3] = tested on: P. aeruginosa strain PA453; assay: Time-kill assay of GN370 in animal blood (Table 34); assay type: cell-based, Pseudomonas aeruginosa; settings: for Log10 CFU/mL of P. aeruginosa: limit of detection 1.6
Text: The results are shown below in Table 34, wherein survival is reported as Log10 CFU/mL and wherein the limit of detection was 1.6 Log10 CFU/mL.

[4] = tested on: Pseudomonas aeruginosa biofilm; assay: MBEC in CAA supplemented with […] human serum (Table 14); assay type: cell-based
Method: as §2, §1

[5] = tested on: Pseudomonas aeruginosa strain CFS-1292 (meropenem resistant); settings: strain CFS-1292; no added cations
Method: The activity of selected GN lysins and constructs in the presence of divalent cations was evaluated, and the impact of divalent cations at physiological concentrations was examined in the MIC assay format.

[6] = tested on: P. aeruginosa PA20 recovered from rabbit lung homogenates; assay type: cell-based, Pseudomonas aeruginosa; settings: for number of isolates with GN370 MIC 1 μg/mL / number of isolates with GN370 MIC 2 μg/mL: n=48
[7] = tested on: P. aeruginosa; assay: MIC, modified CLSI broth microdilution in CAA medium without or with […] human serum (Table 4); assay type: cell-based, Pseudomonas aeruginosa; on CAA/HuS MIC: CAA supplemented with 2.5% human serum
Text: 2015. […] Clinical and Laboratory Standards Institute, Wayne, Pa.

[8] = isolates from GN370 (3 mg/kg) + Meropenem (20 mg/kg) group
[9] = isolates from GN370 (30 mg/kg) + Meropenem (20 mg/kg) group
[10] = isolates from GN370 (30 mg/kg) group
[11] = isolates from Vehicle control group

B1: GN370: lysin-AMP construct: MIDR, FIRL and NPTH moieties N-terminal to GN202 lysin (SEQ ID NO: 44) (protein)
chain: MIDRFIRLNPTHGPRRPRRPGRRAPVRTSQRGIDLIKSFEGLRLSAYQDSVGVWTIGYGTTRGVTRYMTITVEQAERMLSNDIQRFEPELDRLAKVPLNQNQWDALMSFVYNLGAANLASSTLLDLLNKGDYQGAADQFPHWVNAGGKRLDGLVKRRAAERALFLEPLS
- 25% CAA MIC [1]: 4
- MBEC [2]: 1 µg/mL
- Log10 CFU/mL of P. aeruginosa ([3]; Dog blood, 2 hours, GN370 4 μg/mL): 3.5 Log10 CFU/mL
- Log10 CFU/mL of P. aeruginosa ([3]; Dog blood, 2 hours, GN370 20 μg/mL): 1.6 Log10 CFU/mL
- Log10 CFU/mL of P. aeruginosa ([3]; Dog blood, 2 hours, GN370 50 μg/mL): 1.6 Log10 CFU/mL
- Log10 CFU/mL of P. aeruginosa ([3]; Dog blood, 2 hours, GN370 100 μg/mL): 1.6 Log10 CFU/mL
- Log10 CFU/mL of P. aeruginosa ([3]; Dog blood, 2 hours, GN370 200 μg/mL): 1.6 Log10 CFU/mL
- Log10 CFU/mL of P. aeruginosa ([3]; Dog blood, 4 hours, GN370 4 μg/mL): 4.7 Log10 CFU/mL
- Log10 CFU/mL of P. aeruginosa ([3]; Dog blood, 4 hours, GN370 20 μg/mL): 1.6 Log10 CFU/mL
- Log10 CFU/mL of P. aeruginosa ([3]; Dog blood, 4 hours, GN370 50 μg/mL): 1.6 Log10 CFU/mL
- Log10 CFU/mL of P. aeruginosa ([3]; Dog blood, 4 hours, GN370 100 μg/mL): 1.6 Log10 CFU/mL
- Log10 CFU/mL of P. aeruginosa ([3]; Dog blood, 4 hours, GN370 200 μg/mL): 1.6 Log10 CFU/mL
- Log10 CFU/mL of P. aeruginosa ([3]; Dog blood, 24 hours, GN370 4 μg/mL): 7.2 Log10 CFU/mL
- Log10 CFU/mL of P. aeruginosa ([3]; Dog blood, 24 hours, GN370 20 μg/mL): 1.6 Log10 CFU/mL
- Log10 CFU/mL of P. aeruginosa ([3]; Dog blood, 24 hours, GN370 50 μg/mL): 1.6 Log10 CFU/mL
- Log10 CFU/mL of P. aeruginosa ([3]; Dog blood, 24 hours, GN370 100 μg/mL): 1.6 Log10 CFU/mL
- Log10 CFU/mL of P. aeruginosa ([3]; Dog blood, 24 hours, GN370 200 μg/mL): 1.6 Log10 CFU/mL
- Log10 CFU/mL of P. aeruginosa ([3]; Human blood, 2 hours, GN370 4 μg/mL): 1.6 Log10 CFU/mL
- Log10 CFU/mL of P. aeruginosa ([3]; Human blood, 2 hours, GN370 20 μg/mL): 1.6 Log10 CFU/mL
- Log10 CFU/mL of P. aeruginosa ([3]; Human blood, 2 hours, GN370 50 μg/mL): 1.6 Log10 CFU/mL
- Log10 CFU/mL of P. aeruginosa ([3]; Human blood, 2 hours, GN370 100 μg/mL): 1.6 Log10 CFU/mL
- Log10 CFU/mL of P. aeruginosa ([3]; Human blood, 2 hours, GN370 200 μg/mL): 1.6 Log10 CFU/mL
- Log10 CFU/mL of P. aeruginosa ([3]; Human blood, 4 hours, GN370 4 μg/mL): 1.6 Log10 CFU/mL
- Log10 CFU/mL of P. aeruginosa ([3]; Human blood, 4 hours, GN370 20 μg/mL): 1.6 Log10 CFU/mL
- Log10 CFU/mL of P. aeruginosa ([3]; Human blood, 4 hours, GN370 50 μg/mL): 1.6 Log10 CFU/mL
- Log10 CFU/mL of P. aeruginosa ([3]; Human blood, 4 hours, GN370 100 μg/mL): 1.6 Log10 CFU/mL
- Log10 CFU/mL of P. aeruginosa ([3]; Human blood, 4 hours, GN370 200 μg/mL): 1.6 Log10 CFU/mL
- Log10 CFU/mL of P. aeruginosa ([3]; Human blood, 24 hours, GN370 4 μg/mL): 4.1 Log10 CFU/mL
- Log10 CFU/mL of P. aeruginosa ([3]; Human blood, 24 hours, GN370 20 μg/mL): 1.6 Log10 CFU/mL
- Log10 CFU/mL of P. aeruginosa ([3]; Human blood, 24 hours, GN370 50 μg/mL): 1.6 Log10 CFU/mL
- Log10 CFU/mL of P. aeruginosa ([3]; Human blood, 24 hours, GN370 100 μg/mL): 1.6 Log10 CFU/mL
- Log10 CFU/mL of P. aeruginosa ([3]; Human blood, 24 hours, GN370 200 μg/mL): 1.6 Log10 CFU/mL
- Log10 CFU/mL of P. aeruginosa ([3]; Rabbit blood, 2 hours, GN370 4 μg/mL): 1.6 Log10 CFU/mL
- Log10 CFU/mL of P. aeruginosa ([3]; Rabbit blood, 2 hours, GN370 20 μg/mL): 1.6 Log10 CFU/mL
- Log10 CFU/mL of P. aeruginosa ([3]; Rabbit blood, 2 hours, GN370 50 μg/mL): 1.6 Log10 CFU/mL
- Log10 CFU/mL of P. aeruginosa ([3]; Rabbit blood, 2 hours, GN370 100 μg/mL): 1.6 Log10 CFU/mL
- Log10 CFU/mL of P. aeruginosa ([3]; Rabbit blood, 2 hours, GN370 200 μg/mL): 1.6 Log10 CFU/mL
- Log10 CFU/mL of P. aeruginosa ([3]; Rabbit blood, 4 hours, GN370 4 μg/mL): 3.0 Log10 CFU/mL
- Log10 CFU/mL of P. aeruginosa ([3]; Rabbit blood, 4 hours, GN370 20 μg/mL): 1.6 Log10 CFU/mL
- Log10 CFU/mL of P. aeruginosa ([3]; Rabbit blood, 4 hours, GN370 50 μg/mL): 1.6 Log10 CFU/mL
- Log10 CFU/mL of P. aeruginosa ([3]; Rabbit blood, 4 hours, GN370 100 μg/mL): 1.6 Log10 CFU/mL
- Log10 CFU/mL of P. aeruginosa ([3]; Rabbit blood, 4 hours, GN370 200 μg/mL): 1.6 Log10 CFU/mL
- Log10 CFU/mL of P. aeruginosa ([3]; Rabbit blood, 24 hours, GN370 4 μg/mL): 4.9 Log10 CFU/mL
- Log10 CFU/mL of P. aeruginosa ([3]; Rabbit blood, 24 hours, GN370 20 μg/mL): 1.6 Log10 CFU/mL
- Log10 CFU/mL of P. aeruginosa ([3]; Rabbit blood, 24 hours, GN370 50 μg/mL): 1.6 Log10 CFU/mL
- Log10 CFU/mL of P. aeruginosa ([3]; Rabbit blood, 24 hours, GN370 100 μg/mL): 1.6 Log10 CFU/mL
- Log10 CFU/mL of P. aeruginosa ([3]; Rabbit blood, 24 hours, GN370 200 μg/mL): 1.6 Log10 CFU/mL
- Log10 CFU/mL of P. aeruginosa ([3]; Rat blood, 2 hours, GN370 4 μg/mL): 5.9 Log10 CFU/mL
- Log10 CFU/mL of P. aeruginosa ([3]; Rat blood, 2 hours, GN370 20 μg/mL): 6.1 Log10 CFU/mL
- Log10 CFU/mL of P. aeruginosa ([3]; Rat blood, 2 hours, GN370 50 μg/mL): 1.6 Log10 CFU/mL
- Log10 CFU/mL of P. aeruginosa ([3]; Rat blood, 2 hours, GN370 100 μg/mL): 1.6 Log10 CFU/mL
- Log10 CFU/mL of P. aeruginosa ([3]; Rat blood, 2 hours, GN370 200 μg/mL): 1.6 Log10 CFU/mL
- Log10 CFU/mL of P. aeruginosa ([3]; Rat blood, 4 hours, GN370 4 μg/mL): 7.0 Log10 CFU/mL
- Log10 CFU/mL of P. aeruginosa ([3]; Rat blood, 4 hours, GN370 20 μg/mL): 6.2 Log10 CFU/mL
- Log10 CFU/mL of P. aeruginosa ([3]; Rat blood, 4 hours, GN370 50 μg/mL): 3.7 Log10 CFU/mL
- Log10 CFU/mL of P. aeruginosa ([3]; Rat blood, 4 hours, GN370 100 μg/mL): 1.6 Log10 CFU/mL
- Log10 CFU/mL of P. aeruginosa ([3]; Rat blood, 4 hours, GN370 200 μg/mL): 1.6 Log10 CFU/mL
- Log10 CFU/mL of P. aeruginosa ([3]; Rat blood, 24 hours, GN370 4 μg/mL): 7.9 Log10 CFU/mL
- Log10 CFU/mL of P. aeruginosa ([3]; Rat blood, 24 hours, GN370 20 μg/mL): 7.8 Log10 CFU/mL
- Log10 CFU/mL of P. aeruginosa ([3]; Rat blood, 24 hours, GN370 50 μg/mL): 7.6 Log10 CFU/mL
- Log10 CFU/mL of P. aeruginosa ([3]; Rat blood, 24 hours, GN370 100 μg/mL): 3.6 Log10 CFU/mL
- Log10 CFU/mL of P. aeruginosa ([3]; Rat blood, 24 hours, GN370 200 μg/mL): 1.6 Log10 CFU/mL
- activity in dog, human, and rabbit blood (time-kill) ([3]; all times, 20-200 μg/mL, strain PA453): high activity
- activity in rat blood (time-kill) ([3]; majority of the times and concentrations tested, strain PA453): poor or no activity
- MBEC in CAA supplemented with […] human serum [4]: 1 µg/mL
- MIC in 25% CAA [5]: 4 µg/mL
- ex vivo resistance / increase in MIC of isolates recovered from rabbit lung ([6]; all treatment groups of the rabbit pulmonary model): not observed; also recorded: no increase in MIC
- number of isolates with GN370 MIC 1 μg/mL [6, 8]: 34
- number of isolates with GN370 MIC 2 μg/mL [6, 8]: 14
- number of isolates with GN370 MIC 2 μg/mL ([6]; isolates from GN370 (3 mg/kg) group): 16
- number of isolates with GN370 MIC 1 μg/mL ([6]; isolates from GN370 (10 mg/kg) + Meropenem (20 mg/kg) group): 48
- number of isolates with GN370 MIC 2 μg/mL ([6]; isolates from GN370 (10 mg/kg) group): 16
- number of isolates with GN370 MIC 1 μg/mL [6, 9]: 35
- number of isolates with GN370 MIC 2 μg/mL [6, 9]: 13
- number of isolates with GN370 MIC 1 μg/mL [6, 10]: 16
- number of isolates with GN370 MIC 2 μg/mL [6, 10]: 32
- number of isolates with GN370 MIC 2 μg/mL ([6]; isolates from Meropenem (20 mg/kg) group): 16
- number of isolates with GN370 MIC 2 μg/mL ([6]; isolates from Pre-treatment control group): 48
- number of isolates with GN370 MIC 1 μg/mL [6, 11]: 13
- number of isolates with GN370 MIC 2 μg/mL [6, 11]: 35
- CAA MIC ([7]; CAA medium, no human serum): 16000 µg/mL
- CAA/HuS MIC ([7]; CAA supplemented with […] human serum): 4000 µg/mL
